The values that follow come from paper PMC3331935 (Developmental Cell, 2012).

Common to all, as to test: alkaline phosphatase fusion protein binding assay
Assay [1] has as its target Notch1, transfected into HEK293 cells and immunoprecipitated on protein G beads (UniProt Q07008 19-2531).
In assay [2] the target is Notch2 (UniProt O35516 26-2473).
The target in assay [3] is Notch3 (UniProt Q61982 40-2318).
The target in assay [4] is Notch4 (UniProt P31695 21-1964).

Sequence of Notch1, transfected into HEK293 cells and immunoprecipitated on protein G beads (Q07008 19-2531): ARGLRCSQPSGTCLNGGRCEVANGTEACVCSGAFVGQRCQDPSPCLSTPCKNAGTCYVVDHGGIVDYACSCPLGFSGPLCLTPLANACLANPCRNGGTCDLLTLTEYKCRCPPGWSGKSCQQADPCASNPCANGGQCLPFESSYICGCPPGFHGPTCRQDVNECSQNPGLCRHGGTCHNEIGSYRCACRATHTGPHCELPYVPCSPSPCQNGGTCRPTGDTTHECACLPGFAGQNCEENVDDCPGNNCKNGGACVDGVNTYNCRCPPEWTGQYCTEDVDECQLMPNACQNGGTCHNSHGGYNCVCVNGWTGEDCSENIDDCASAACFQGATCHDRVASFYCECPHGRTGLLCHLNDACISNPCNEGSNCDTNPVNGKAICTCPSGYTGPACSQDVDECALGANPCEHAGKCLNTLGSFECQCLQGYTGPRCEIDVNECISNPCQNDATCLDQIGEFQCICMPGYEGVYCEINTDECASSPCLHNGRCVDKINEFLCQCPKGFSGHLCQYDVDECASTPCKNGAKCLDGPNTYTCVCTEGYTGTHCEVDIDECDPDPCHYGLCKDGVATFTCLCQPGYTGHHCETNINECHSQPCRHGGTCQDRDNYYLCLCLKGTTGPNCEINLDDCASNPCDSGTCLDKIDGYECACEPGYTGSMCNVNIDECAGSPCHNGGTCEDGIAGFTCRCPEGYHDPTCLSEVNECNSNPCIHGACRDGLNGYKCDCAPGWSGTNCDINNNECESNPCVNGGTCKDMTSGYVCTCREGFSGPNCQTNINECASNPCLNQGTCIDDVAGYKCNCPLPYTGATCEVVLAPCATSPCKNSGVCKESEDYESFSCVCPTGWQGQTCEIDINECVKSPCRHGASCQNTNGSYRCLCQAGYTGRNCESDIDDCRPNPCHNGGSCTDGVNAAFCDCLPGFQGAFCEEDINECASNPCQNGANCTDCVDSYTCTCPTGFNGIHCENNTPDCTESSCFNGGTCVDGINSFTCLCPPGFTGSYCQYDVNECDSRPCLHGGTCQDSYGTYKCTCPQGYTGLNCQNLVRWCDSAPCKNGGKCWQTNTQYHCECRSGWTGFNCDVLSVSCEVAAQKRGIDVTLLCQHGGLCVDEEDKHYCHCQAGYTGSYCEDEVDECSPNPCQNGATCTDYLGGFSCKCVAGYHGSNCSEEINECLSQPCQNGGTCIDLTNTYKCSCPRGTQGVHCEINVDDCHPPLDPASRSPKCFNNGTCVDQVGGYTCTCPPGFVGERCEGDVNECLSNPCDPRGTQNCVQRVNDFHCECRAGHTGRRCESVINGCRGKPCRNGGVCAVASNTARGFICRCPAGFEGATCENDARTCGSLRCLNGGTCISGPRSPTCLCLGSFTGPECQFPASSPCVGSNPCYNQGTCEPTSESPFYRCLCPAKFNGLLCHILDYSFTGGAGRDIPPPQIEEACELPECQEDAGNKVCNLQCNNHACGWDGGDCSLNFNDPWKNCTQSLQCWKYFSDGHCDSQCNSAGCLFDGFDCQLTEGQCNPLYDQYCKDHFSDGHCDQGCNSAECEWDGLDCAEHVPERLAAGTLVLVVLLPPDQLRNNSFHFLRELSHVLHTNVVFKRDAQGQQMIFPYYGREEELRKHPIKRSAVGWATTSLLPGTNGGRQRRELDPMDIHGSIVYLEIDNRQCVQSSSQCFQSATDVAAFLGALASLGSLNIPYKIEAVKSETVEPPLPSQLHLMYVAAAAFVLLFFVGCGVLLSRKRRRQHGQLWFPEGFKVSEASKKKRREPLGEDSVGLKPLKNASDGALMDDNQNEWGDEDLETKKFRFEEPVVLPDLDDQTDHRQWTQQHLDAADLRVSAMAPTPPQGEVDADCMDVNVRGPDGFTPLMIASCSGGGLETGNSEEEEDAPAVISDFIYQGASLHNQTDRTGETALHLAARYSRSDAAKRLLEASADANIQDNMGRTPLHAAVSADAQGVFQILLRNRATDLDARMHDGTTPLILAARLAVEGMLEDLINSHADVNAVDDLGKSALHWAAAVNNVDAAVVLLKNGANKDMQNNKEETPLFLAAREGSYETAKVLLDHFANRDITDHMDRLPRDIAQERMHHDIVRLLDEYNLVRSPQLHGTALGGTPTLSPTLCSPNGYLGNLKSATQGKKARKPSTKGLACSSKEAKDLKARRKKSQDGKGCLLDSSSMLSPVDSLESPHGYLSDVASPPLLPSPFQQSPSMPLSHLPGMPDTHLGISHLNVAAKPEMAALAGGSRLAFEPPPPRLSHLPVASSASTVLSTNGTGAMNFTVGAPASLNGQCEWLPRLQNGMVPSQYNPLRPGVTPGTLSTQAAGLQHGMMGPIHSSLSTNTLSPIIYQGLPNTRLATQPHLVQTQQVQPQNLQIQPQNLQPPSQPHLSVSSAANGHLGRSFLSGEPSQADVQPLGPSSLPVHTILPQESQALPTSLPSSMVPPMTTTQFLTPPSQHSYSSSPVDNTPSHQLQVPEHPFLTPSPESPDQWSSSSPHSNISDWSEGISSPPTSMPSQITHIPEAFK
Sequence of Notch3 (Q61982 40-2318): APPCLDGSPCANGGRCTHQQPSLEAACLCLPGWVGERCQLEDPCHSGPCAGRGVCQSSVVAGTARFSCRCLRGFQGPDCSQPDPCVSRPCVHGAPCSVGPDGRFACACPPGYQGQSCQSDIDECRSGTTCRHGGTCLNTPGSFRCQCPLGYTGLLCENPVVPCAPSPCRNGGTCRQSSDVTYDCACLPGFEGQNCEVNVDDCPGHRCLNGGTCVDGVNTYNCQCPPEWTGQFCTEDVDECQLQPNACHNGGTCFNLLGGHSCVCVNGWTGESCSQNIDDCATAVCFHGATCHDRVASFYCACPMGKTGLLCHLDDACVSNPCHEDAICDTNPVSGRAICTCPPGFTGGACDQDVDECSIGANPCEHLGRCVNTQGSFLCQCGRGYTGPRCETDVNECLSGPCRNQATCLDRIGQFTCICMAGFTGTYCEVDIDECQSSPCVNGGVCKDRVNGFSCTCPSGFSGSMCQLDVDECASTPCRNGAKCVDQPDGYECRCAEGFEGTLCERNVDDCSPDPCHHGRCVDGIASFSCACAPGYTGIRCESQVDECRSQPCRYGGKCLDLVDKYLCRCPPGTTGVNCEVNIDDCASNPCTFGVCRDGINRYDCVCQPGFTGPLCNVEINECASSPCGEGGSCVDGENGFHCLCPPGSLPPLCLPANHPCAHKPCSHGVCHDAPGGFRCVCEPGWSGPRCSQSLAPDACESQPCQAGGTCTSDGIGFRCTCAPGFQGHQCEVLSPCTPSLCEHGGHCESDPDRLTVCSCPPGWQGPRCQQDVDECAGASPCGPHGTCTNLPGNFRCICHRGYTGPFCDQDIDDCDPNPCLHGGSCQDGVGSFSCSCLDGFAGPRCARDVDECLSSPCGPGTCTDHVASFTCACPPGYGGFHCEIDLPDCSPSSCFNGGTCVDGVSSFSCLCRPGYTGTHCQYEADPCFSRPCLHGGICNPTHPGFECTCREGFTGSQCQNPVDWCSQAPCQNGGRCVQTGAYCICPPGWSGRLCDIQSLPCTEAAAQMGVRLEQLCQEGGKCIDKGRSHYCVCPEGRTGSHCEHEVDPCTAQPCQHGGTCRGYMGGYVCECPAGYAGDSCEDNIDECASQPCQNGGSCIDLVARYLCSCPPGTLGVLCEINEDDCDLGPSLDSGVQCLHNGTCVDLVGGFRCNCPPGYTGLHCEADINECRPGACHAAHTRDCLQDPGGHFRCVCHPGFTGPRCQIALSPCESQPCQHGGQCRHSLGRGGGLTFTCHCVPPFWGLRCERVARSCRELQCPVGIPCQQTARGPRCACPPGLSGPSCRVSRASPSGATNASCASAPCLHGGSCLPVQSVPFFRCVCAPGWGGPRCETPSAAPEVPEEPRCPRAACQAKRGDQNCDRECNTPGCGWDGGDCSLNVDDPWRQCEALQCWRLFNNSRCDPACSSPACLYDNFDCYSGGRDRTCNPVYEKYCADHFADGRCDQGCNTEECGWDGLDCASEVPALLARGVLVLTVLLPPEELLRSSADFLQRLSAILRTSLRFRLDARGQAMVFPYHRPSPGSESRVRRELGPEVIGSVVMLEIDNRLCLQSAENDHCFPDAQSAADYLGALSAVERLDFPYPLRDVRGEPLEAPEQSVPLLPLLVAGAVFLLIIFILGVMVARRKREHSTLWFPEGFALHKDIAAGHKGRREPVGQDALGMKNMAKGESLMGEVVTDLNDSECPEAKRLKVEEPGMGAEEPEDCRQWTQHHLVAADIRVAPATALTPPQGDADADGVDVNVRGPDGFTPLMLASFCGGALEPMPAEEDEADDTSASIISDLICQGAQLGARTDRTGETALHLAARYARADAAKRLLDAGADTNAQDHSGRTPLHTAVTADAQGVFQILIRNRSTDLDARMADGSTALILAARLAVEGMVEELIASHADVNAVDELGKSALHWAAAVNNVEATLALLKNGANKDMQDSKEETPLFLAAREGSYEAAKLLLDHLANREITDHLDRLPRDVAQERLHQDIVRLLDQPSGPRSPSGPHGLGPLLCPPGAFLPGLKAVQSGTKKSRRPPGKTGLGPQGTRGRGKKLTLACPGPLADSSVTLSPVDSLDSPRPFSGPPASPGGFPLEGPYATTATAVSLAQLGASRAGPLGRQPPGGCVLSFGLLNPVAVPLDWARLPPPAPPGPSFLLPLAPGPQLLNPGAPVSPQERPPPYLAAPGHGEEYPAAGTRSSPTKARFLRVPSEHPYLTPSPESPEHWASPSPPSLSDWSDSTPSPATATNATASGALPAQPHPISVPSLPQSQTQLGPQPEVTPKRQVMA

B1: alkaline phosphatase tagged Botch (Botch-N-AP) (natural protein, UniProt Q8R3J5 1-223, looked up)
chain: MKQESASQSTPPPSLSPAPSSAQPSWGDGDPQALWIFGYGSLVWKPDFAYSDSRVGFVRGYSRRFWQGDTFHRGSDKMPGRVVTLLEDREGCTWGVAYQVRGEQVNEALKYLNVREAVLGGYDTKEVTFYPQDTPDQPLTALAYVATPQNPGYLGPAPEEVIATQILACRGFSGHNLEYLLRLADFMQLCGPQAQDEHLEAIVDAVGTLLPCSYLPEQPLALT
As usually defined, the Kd is the constant that tells how readily two partners part at equilibrium. Read a low Kd as a tighter complex. On to B1, for which the Kd in assay [1] worked out at 3.3 nM; in assay [2] it was 8.8 nM; in assay [3], 3.3 nM; in assay [4], 6.3 nM.
